Our source for the Kd and kon values is patent US20170015742A1 (published 2017).

Numbering of substitutions follows the chain as printed. Where only a bound is given, the exact number is not on record here.

To fix the notation:
B1: hBEW-9E10.1 (antibody, V domains shown)
VH: EIQLVQSGSELKKPGASVKVSCKASGYTFTNYGMYWVKQAPGQGLEYMGWIDTETGRPTYADDFKGRFVFSLDTSVSTAYLQISSLKAEDTAVYFCARWSGDTTGIRGPWFAYWGQGTLVTVSS
VL: DIRMTQSPSSLSASVGDRVTIECLASEDIYSDLAWYQQKPGKSPKLLIYNANGLQNGVPSRFSGSGSGTDYSLTISSLQPEDVATYFCQQYNYFPGTFGQGTKLEIK
notes: Humanized IgG made from pHybE vectors in HEK293 cells; also called AB642 (9E10.1)
B2: hBEW-9E10.2 (antibody, V domains shown)
VH: EIQLVQSGAEVKKPGSSVKVSCKASGYTFTNYGMYWVKQAPGQGLEYMGWIDTETGRPTYADDFKGRFTFTADKSTSTAYMELSSLRSEDTAVYFCARWSGDTTGIRGPWFAYWGQGTLVTVSS
VL: B1 VL
notes: Humanized IgG made from pHybE vectors in HEK293 cells
B3: hBEW-9E10.5 (antibody, V domains shown)
VH: B2 VH
VL: B1 VL with E22T, S72T
notes: as for B2
B4: hBEW-9E10.3 (antibody, V domains shown)
VH: B2 VH with I2V, K38R, Y47W, F95Y
VL: B1 VL
notes: as for B2
B5: hBEW-9E10.6 (antibody, V domains shown)
VH: B2 VH with I2V, K38R, Y47W, F95Y
VL: B1 VL with E22T, S72T
notes: as for B2
B6: hBEW-9E10.4 (antibody, V domains shown)
VH: B1 VH
VL: B1 VL with E22T, S72T
notes: as for B2
B7: hBEW-1B10.1 (antibody, V domains shown)
VH: EVQLVESGGGLVQPGGSLRLSCAASGFSFSKYDMAWFRQAPGKGLEWVASITTSGVGTYYRDSVKGRFTVSRDNAKSTLYLQMNSLRAEDTAVYYCARGYGAMDAWGQGTTVTVSS
VL: DIQMTQSPSSLSASVGDRVTITCKASQDIDDYLSWYQQKPGKSPKLVIYAATRLADGVPSRFSGSGSGTDYTLTISSLQPEDFATYYCLQSSSTPWTFGGGTKVEIK
notes: as for B2
B8: hBEW-1B10.2 (antibody, V domains shown)
VH: B7 VH with S77N, T78S
VL: B7 VL
notes: as for B2
B9: hBDI-9E8.1 (antibody, V domains shown)
VH: EVTLRESGPALVKPTQTLTLTCTFSGFSLSTYGMGVGWIRQPPGKALEWLANIWWDDDKYYNPSLKNRLTISKDTSKNQVVLTMTNMDPVDTATYYCARIESIGTTYSFDYWGQGTMVTVSS
VL: NFMLTQPHSVSESPGKTVTISCERSSGDIGDSYVSWYQQRPGSSPTTVIYADDQRPSGVPDRFSGSIDSSSNSASLTISGLKTEDEADYYCQSYDINIDIVFGGGTKLTVL
notes: Humanized IgG
B10: hBDI-9E8.5 (antibody, V domains shown)
VH: B9 VH with A46G, V80A, M84I
VL: B9 VL
notes: Humanized IgG
B11: hBDI-9E8.2 (antibody, V domains shown)
VH: B9 VH
VL: B9 VL with S44P, T47N, Y90F
notes: Humanized IgG
B12: hBDI-9E8.6 (antibody, V domains shown)
VH: B9 VH with A46G, V80A, M84I
VL: B9 VL with S44P, T47N, Y90F
notes: Humanized IgG

The first experiment deals with T1, human VEGF-A (human, UniProt P15692-4 27-191, limits assumed).
T1 construct: also called huVEGF-A
T1 sequence (P15692 other isoform, or with tags, fused parts or gaps limits assumed): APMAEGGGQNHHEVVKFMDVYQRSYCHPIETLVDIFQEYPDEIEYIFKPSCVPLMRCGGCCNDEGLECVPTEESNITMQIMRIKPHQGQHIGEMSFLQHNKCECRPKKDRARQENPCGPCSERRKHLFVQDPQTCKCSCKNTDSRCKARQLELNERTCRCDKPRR
Briefly: SPR (Biacore), antibody captured by anti-human Fc, VEGF-A injected. The method, then: (§1) For example, approximately 9000 RU of goat anti-human Fc specific polyclonal antibody (Thermo Fisher Scientific Inc., Rockford, Ill.) diluted in 10 mM sodium acetate (pH 4.5) is directly immobilized across a CM5 research grade biosensor chip using a standard amine coupling kit according to manufacturer's instructions and procedures at 25 μg/ml. Unreacted moieties on the biosensor surface were blocked with ethanolamine. For kinetic analysis, rate equations derived from the 1:1 Langmuir binding model were fitted simultaneously to multiple antigen injections (using global fit analysis) with the use of Scrubber 2 (BioLogic Software), Biacore Biaevaluation 4.0.1 software or Biacore T100 Evaluation software. Purified antibodies or DVD-Ig molecules were diluted in running buffer for capture across goat anti-human Fc reaction surfaces. Antibodies or DVD-Ig molecules to be captured as a ligand (1 μg/ml) were injected over reaction matrices at a flow rate of 10 μl/minute. During the assay, all measurements were referenced against the capture surface alone (i.e., with no captured antibody or DVD-Ig molecule). […] The equilibrium dissociation constant KD (M) of the reaction between antibodies and the target antigen was then calculated from the kinetic rate constants by the following formula: KD=Koff/Kₒₙ. Binding was recorded as a function of time and kinetic rate constants were calculated.
By Kd is commonly meant the concentration at which binding is half-saturated. Read a low Kd as higher affinity. In general, kon refers to a measure of how fast the partners come together. A higher kon goes with faster complex formation. Take B1: the affinity, expressed as Kd, was 0.0021 nM and the kon came to 1.2e+07 M⁻¹ s⁻¹.

Take B2: the affinity, expressed as Kd, was 0.012 nM and the kon worked out at 1.6e+07 M⁻¹ s⁻¹.

The molecule B3 showed a Kd of 0.015 nM and a kon of 1.6e+07 M⁻¹ s⁻¹.

B4: the Kd came out at 0.0032 nM and the kon came out at 1.3e+07 M⁻¹ s⁻¹.

In the case of B5, binding was characterised by a dissociation constant (Kd) of 0.0026 nM and the kon came out at 1.5e+07 M⁻¹ s⁻¹.

For B6, the Kd worked out at 0.0021 nM and the kon was 1.2e+07 M⁻¹ s⁻¹.

In turn, B7 yielded a Kd of 0.018 nM and a kon of 7.6e+06 M⁻¹ s⁻¹.

Molecule B8 returned a Kd of 0.02 nM and a kon of 7.5e+06 M⁻¹ s⁻¹.

The target of the next experiment is T2, Human PDGF-BB (human, UniProt P01127 82-190).
T2 construct: Recombinant human PDGF-BB, a homodimer of two B chains; also called hPDGF-BB; huPDGF-BB
T2 sequence (P01127 82-190 limits assumed): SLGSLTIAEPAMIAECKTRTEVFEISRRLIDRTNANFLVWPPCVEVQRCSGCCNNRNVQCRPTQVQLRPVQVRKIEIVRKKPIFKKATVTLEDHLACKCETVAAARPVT
Briefly: SPR (Biacore), antibody captured via anti-human Fc, antigen in solution. As for the experimental part: as §1
Take B9: the Kd was not above 0.56 nM and the kon was not below 1e+07 M⁻¹ s⁻¹.

B10 displayed a Kd not above 0.21 nM and a kon not below 1e+07 M⁻¹ s⁻¹.

B11 returned a Kd not above 0.51 nM and a kon not below 1e+07 M⁻¹ s⁻¹.

Molecule B12 returned a Kd not above 0.21 nM and a kon not below 1e+07 M⁻¹ s⁻¹.
